Measurements as given in patent US12679878B2, “CRF2 receptor agonists and their use in therapy” (SANOFI, priority 2020, dated 2026).
Starred links: 1 amine or outer side, 2 acyl side, 3 side chain; linkers in the order of their positions; H or OH if unused. Non-standard residues stand in square brackets, D forms with d. Groups on a side chain read outwards from the residue. No end group written: not given here. *: point of attachment. C18 diacid = O=C(O)CCCCCCCCCCCCCCCCC(=O)*; γGlu = O=C(O)[C@H](CCC(=O)[*:2])N[*:1]; Palmitoyl = CCCCCCCCCCCCCCCC(=O)*; AEEA = NCCOCCOCC(=O)O; Aib = CC(C)(N)C(=O)O

B1: SEQ ID NO: 96 (peptide)
peptide: IVLSLDVPIKLK([AEEA-AEEA-γGlu-C18 diacid])QILLKQERQKKEREQAETNKQILAQV-NH2
modifications: N-terminus assumed
SMILES: CC[C@H](C)[C@H](N)C(=O)N[C@H](C(=O)N[C@@H](CC(C)C)C(=O)N[C@@H](CO)C(=O)N[C@@H](CC(C)C)C(=O)N[C@@H](CC(=O)O)C(=O)N[C@H](C(=O)N1CCC[C@H]1C(=O)N[C@H](C(=O)N[C@@H](CCCCN)C(=O)N[C@@H](CC(C)C)C(=O)N[C@@H](CCCCNC(=O)COCCOCCNC(=O)COCCOCCNC(=O)CC[C@H](NC(=O)CCCCCCCCCCCCCCCCC(=O)O)C(=O)O)C(=O)N[C@@H](CCC(N)=O)C(=O)N[C@H](C(=O)N[C@@H](CC(C)C)C(=O)N[C@@H](CC(C)C)C(=O)N[C@@H](CCCCN)C(=O)N[C@@H](CCC(N)=O)C(=O)N[C@@H](CCC(=O)O)C(=O)N[C@@H](CCCNC(=N)N)C(=O)N[C@@H](CCC(N)=O)C(=O)N[C@@H](CCCCN)C(=O)N[C@@H](CCCCN)C(=O)N[C@@H](CCC(=O)O)C(=O)N[C@@H](CCCNC(=N)N)C(=O)N[C@@H](CCC(=O)O)C(=O)N[C@@H](CCC(N)=O)C(=O)N[C@@H](C)C(=O)N[C@@H](CCC(=O)O)C(=O)N[C@H](C(=O)N[C@@H](CC(N)=O)C(=O)N[C@@H](CCCCN)C(=O)N[C@@H](CCC(N)=O)C(=O)N[C@H](C(=O)N[C@@H](CC(C)C)C(=O)N[C@@H](C)C(=O)N[C@@H](CCC(N)=O)C(=O)N[C@H](C(N)=O)C(C)C)[C@@H](C)CC)[C@@H](C)O)[C@@H](C)CC)[C@@H](C)CC)C(C)C)C(C)C
B2: SEQ ID NO: 99 (peptide)
peptide: IVLSLDVPIKLK([AEEA-AEEA-γGlu-C18 diacid])KILLKQERQKK[Aib]REQAEKNKQILAQV-NH2
modifications: N-terminus assumed
SMILES: CC[C@H](C)[C@H](N)C(=O)N[C@H](C(=O)N[C@@H](CC(C)C)C(=O)N[C@@H](CO)C(=O)N[C@@H](CC(C)C)C(=O)N[C@@H](CC(=O)O)C(=O)N[C@H](C(=O)N1CCC[C@H]1C(=O)N[C@H](C(=O)N[C@@H](CCCCN)C(=O)N[C@@H](CC(C)C)C(=O)N[C@@H](CCCCNC(=O)COCCOCCNC(=O)COCCOCCNC(=O)CC[C@H](NC(=O)CCCCCCCCCCCCCCCCC(=O)O)C(=O)O)C(=O)N[C@@H](CCCCN)C(=O)N[C@H](C(=O)N[C@@H](CC(C)C)C(=O)N[C@@H](CC(C)C)C(=O)N[C@@H](CCCCN)C(=O)N[C@@H](CCC(N)=O)C(=O)N[C@@H](CCC(=O)O)C(=O)N[C@@H](CCCNC(=N)N)C(=O)N[C@@H](CCC(N)=O)C(=O)N[C@@H](CCCCN)C(=O)N[C@@H](CCCCN)C(=O)NC(C)(C)C(=O)N[C@@H](CCCNC(=N)N)C(=O)N[C@@H](CCC(=O)O)C(=O)N[C@@H](CCC(N)=O)C(=O)N[C@@H](C)C(=O)N[C@@H](CCC(=O)O)C(=O)N[C@@H](CCCCN)C(=O)N[C@@H](CC(N)=O)C(=O)N[C@@H](CCCCN)C(=O)N[C@@H](CCC(N)=O)C(=O)N[C@H](C(=O)N[C@@H](CC(C)C)C(=O)N[C@@H](C)C(=O)N[C@@H](CCC(N)=O)C(=O)N[C@H](C(N)=O)C(C)C)[C@@H](C)CC)[C@@H](C)CC)[C@@H](C)CC)C(C)C)C(C)C
B3: SEQ ID NO: 95 (peptide)
peptide: IVLSLDVPIKLK([AEEA-AEEA-γGlu-C18 diacid])QKLLKQERQKKEREQAETNKQILAQV-NH2
modifications: N-terminus assumed
SMILES: CC[C@H](C)[C@H](N)C(=O)N[C@H](C(=O)N[C@@H](CC(C)C)C(=O)N[C@@H](CO)C(=O)N[C@@H](CC(C)C)C(=O)N[C@@H](CC(=O)O)C(=O)N[C@H](C(=O)N1CCC[C@H]1C(=O)N[C@H](C(=O)N[C@@H](CCCCN)C(=O)N[C@@H](CC(C)C)C(=O)N[C@@H](CCCCNC(=O)COCCOCCNC(=O)COCCOCCNC(=O)CC[C@H](NC(=O)CCCCCCCCCCCCCCCCC(=O)O)C(=O)O)C(=O)N[C@@H](CCC(N)=O)C(=O)N[C@@H](CCCCN)C(=O)N[C@@H](CC(C)C)C(=O)N[C@@H](CC(C)C)C(=O)N[C@@H](CCCCN)C(=O)N[C@@H](CCC(N)=O)C(=O)N[C@@H](CCC(=O)O)C(=O)N[C@@H](CCCNC(=N)N)C(=O)N[C@@H](CCC(N)=O)C(=O)N[C@@H](CCCCN)C(=O)N[C@@H](CCCCN)C(=O)N[C@@H](CCC(=O)O)C(=O)N[C@@H](CCCNC(=N)N)C(=O)N[C@@H](CCC(=O)O)C(=O)N[C@@H](CCC(N)=O)C(=O)N[C@@H](C)C(=O)N[C@@H](CCC(=O)O)C(=O)N[C@H](C(=O)N[C@@H](CC(N)=O)C(=O)N[C@@H](CCCCN)C(=O)N[C@@H](CCC(N)=O)C(=O)N[C@H](C(=O)N[C@@H](CC(C)C)C(=O)N[C@@H](C)C(=O)N[C@@H](CCC(N)=O)C(=O)N[C@H](C(N)=O)C(C)C)[C@@H](C)CC)[C@@H](C)O)[C@@H](C)CC)C(C)C)C(C)C
B4: SEQ ID NO: 98 (peptide)
peptide: IVLSLDVPIKLK([AEEA-AEEA-γGlu-C18 diacid])QKLLKQERQKK[Aib]REQAETNKQILAQV-NH2
modifications: N-terminus assumed
SMILES: CC[C@H](C)[C@H](N)C(=O)N[C@H](C(=O)N[C@@H](CC(C)C)C(=O)N[C@@H](CO)C(=O)N[C@@H](CC(C)C)C(=O)N[C@@H](CC(=O)O)C(=O)N[C@H](C(=O)N1CCC[C@H]1C(=O)N[C@H](C(=O)N[C@@H](CCCCN)C(=O)N[C@@H](CC(C)C)C(=O)N[C@@H](CCCCNC(=O)COCCOCCNC(=O)COCCOCCNC(=O)CC[C@H](NC(=O)CCCCCCCCCCCCCCCCC(=O)O)C(=O)O)C(=O)N[C@@H](CCC(N)=O)C(=O)N[C@@H](CCCCN)C(=O)N[C@@H](CC(C)C)C(=O)N[C@@H](CC(C)C)C(=O)N[C@@H](CCCCN)C(=O)N[C@@H](CCC(N)=O)C(=O)N[C@@H](CCC(=O)O)C(=O)N[C@@H](CCCNC(=N)N)C(=O)N[C@@H](CCC(N)=O)C(=O)N[C@@H](CCCCN)C(=O)N[C@@H](CCCCN)C(=O)NC(C)(C)C(=O)N[C@@H](CCCNC(=N)N)C(=O)N[C@@H](CCC(=O)O)C(=O)N[C@@H](CCC(N)=O)C(=O)N[C@@H](C)C(=O)N[C@@H](CCC(=O)O)C(=O)N[C@H](C(=O)N[C@@H](CC(N)=O)C(=O)N[C@@H](CCCCN)C(=O)N[C@@H](CCC(N)=O)C(=O)N[C@H](C(=O)N[C@@H](CC(C)C)C(=O)N[C@@H](C)C(=O)N[C@@H](CCC(N)=O)C(=O)N[C@H](C(N)=O)C(C)C)[C@@H](C)CC)[C@@H](C)O)[C@@H](C)CC)C(C)C)C(C)C
B5: SEQ ID NO: 94 (peptide)
peptide: IVLSLDVPIKLK([AEEA-AEEA-γGlu-C18 diacid])KILLKQERQKKEREQAETNKQILAQV-NH2
modifications: N-terminus assumed
SMILES: CC[C@H](C)[C@H](N)C(=O)N[C@H](C(=O)N[C@@H](CC(C)C)C(=O)N[C@@H](CO)C(=O)N[C@@H](CC(C)C)C(=O)N[C@@H](CC(=O)O)C(=O)N[C@H](C(=O)N1CCC[C@H]1C(=O)N[C@H](C(=O)N[C@@H](CCCCN)C(=O)N[C@@H](CC(C)C)C(=O)N[C@@H](CCCCNC(=O)COCCOCCNC(=O)COCCOCCNC(=O)CC[C@H](NC(=O)CCCCCCCCCCCCCCCCC(=O)O)C(=O)O)C(=O)N[C@@H](CCCCN)C(=O)N[C@H](C(=O)N[C@@H](CC(C)C)C(=O)N[C@@H](CC(C)C)C(=O)N[C@@H](CCCCN)C(=O)N[C@@H](CCC(N)=O)C(=O)N[C@@H](CCC(=O)O)C(=O)N[C@@H](CCCNC(=N)N)C(=O)N[C@@H](CCC(N)=O)C(=O)N[C@@H](CCCCN)C(=O)N[C@@H](CCCCN)C(=O)N[C@@H](CCC(=O)O)C(=O)N[C@@H](CCCNC(=N)N)C(=O)N[C@@H](CCC(=O)O)C(=O)N[C@@H](CCC(N)=O)C(=O)N[C@@H](C)C(=O)N[C@@H](CCC(=O)O)C(=O)N[C@H](C(=O)N[C@@H](CC(N)=O)C(=O)N[C@@H](CCCCN)C(=O)N[C@@H](CCC(N)=O)C(=O)N[C@H](C(=O)N[C@@H](CC(C)C)C(=O)N[C@@H](C)C(=O)N[C@@H](CCC(N)=O)C(=O)N[C@H](C(N)=O)C(C)C)[C@@H](C)CC)[C@@H](C)O)[C@@H](C)CC)[C@@H](C)CC)C(C)C)C(C)C
B6: SEQ ID NO: 97 (peptide)
peptide: IVLSLDVPIKLK([AEEA-AEEA-γGlu-C18 diacid])QKLLKQERQKKQREQAETNKQILAQV-NH2
modifications: N-terminus assumed
SMILES: CC[C@H](C)[C@H](N)C(=O)N[C@H](C(=O)N[C@@H](CC(C)C)C(=O)N[C@@H](CO)C(=O)N[C@@H](CC(C)C)C(=O)N[C@@H](CC(=O)O)C(=O)N[C@H](C(=O)N1CCC[C@H]1C(=O)N[C@H](C(=O)N[C@@H](CCCCN)C(=O)N[C@@H](CC(C)C)C(=O)N[C@@H](CCCCNC(=O)COCCOCCNC(=O)COCCOCCNC(=O)CC[C@H](NC(=O)CCCCCCCCCCCCCCCCC(=O)O)C(=O)O)C(=O)N[C@@H](CCC(N)=O)C(=O)N[C@@H](CCCCN)C(=O)N[C@@H](CC(C)C)C(=O)N[C@@H](CC(C)C)C(=O)N[C@@H](CCCCN)C(=O)N[C@@H](CCC(N)=O)C(=O)N[C@@H](CCC(=O)O)C(=O)N[C@@H](CCCNC(=N)N)C(=O)N[C@@H](CCC(N)=O)C(=O)N[C@@H](CCCCN)C(=O)N[C@@H](CCCCN)C(=O)N[C@@H](CCC(N)=O)C(=O)N[C@@H](CCCNC(=N)N)C(=O)N[C@@H](CCC(=O)O)C(=O)N[C@@H](CCC(N)=O)C(=O)N[C@@H](C)C(=O)N[C@@H](CCC(=O)O)C(=O)N[C@H](C(=O)N[C@@H](CC(N)=O)C(=O)N[C@@H](CCCCN)C(=O)N[C@@H](CCC(N)=O)C(=O)N[C@H](C(=O)N[C@@H](CC(C)C)C(=O)N[C@@H](C)C(=O)N[C@@H](CCC(N)=O)C(=O)N[C@H](C(N)=O)C(C)C)[C@@H](C)CC)[C@@H](C)O)[C@@H](C)CC)C(C)C)C(C)C

Target: human corticotropin-releasing factor 2α (CRF2 α receptor) (human), Q13324
Assay: cell-based or functional assay

Sequence of human corticotropin-releasing factor 2α (CRF2 α receptor) (human), Q13324 (Q13324 20-411): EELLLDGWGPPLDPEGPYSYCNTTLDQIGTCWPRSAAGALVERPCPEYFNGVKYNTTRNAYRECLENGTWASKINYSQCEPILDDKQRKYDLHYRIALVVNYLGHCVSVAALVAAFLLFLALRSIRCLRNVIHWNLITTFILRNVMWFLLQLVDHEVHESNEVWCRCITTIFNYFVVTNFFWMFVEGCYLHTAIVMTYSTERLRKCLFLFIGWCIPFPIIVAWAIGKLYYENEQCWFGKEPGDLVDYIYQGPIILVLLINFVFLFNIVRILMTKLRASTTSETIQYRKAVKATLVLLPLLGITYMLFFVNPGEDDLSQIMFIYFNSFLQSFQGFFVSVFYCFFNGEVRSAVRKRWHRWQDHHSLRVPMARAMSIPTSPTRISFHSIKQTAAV

In order of falling EC50 [nM], 0% HSA:
1. B3  25 nM
2. B4  2.36 nM
3. B5  1.73 nM
4. B6  1.66 nM
5. B1  0.38 nM
6. B2  0.06 nM
7. IVLSLD[dV]PTKLK([γGlu-Palmitoyl])QKLLKQERQRKEREQAEKNARILARV-NH2 [SEQ ID NO: 7]  0.02 nM

In order of falling EC50 [nM], 0.1% HSA:
1. B5  49.1 nM
2. B2  1.6 nM
3. IVLSLD[dV]PTKLK([γGlu-Palmitoyl])QKLLKQERQRKEREQAEKNARILARV-NH2 [SEQ ID NO: 7]  0.03 nM
